IntAct's records for PubMed 29039417

B1: BBSome complex member BBS2 (Homo sapiens), Q9BXC9 (parent)
chain: MLLPVFTLKLRHKISPRMVAIGRYDGTHPCLAAATQTGKVFIHNPHTRNQHVSASRVFQSPLESDVSLLSINQAVSCLTAGVLNPELGYDALLVGTQTNLLAYDVYNNSDLFYREVADGANAIVLGTLGDISSPLAIIGGNCALQGFNHEGSDLFWTVTGDNVNSLALCDFDGDGKKELLVGSEDFDIRVFKEDEIVAEMTETEIVTSLCPMYGSRFGYALSNGTVGVYDKTSRYWRIKSKNHAMSIHAFDLNSDGVNELITGWSNGKVDARSDRTGEVIFKDNFSSAIAGVVEGDYRMDGHIQLICCSVDGEIRGYLPGTAEMRGNLMDTSAEQDLIRELSQKKQNLLLELRNYEENAKAELASPLNEADGHRGIIPANTRLHTTLSVSLGNETQTAHTELRISTSNDTIIRAVLIFAEGIFTGESHVVHPSIHNLSSSICIPIVPPKDVPVDLHLKAFVGYRSSTQFHVFESTRQLPRFSMYALTSLDPASEPISYVNFTIAERAQRVVVWLGQNFLLPEDTHIQNAPFQVCFTSLRNGGHLHIKIKLSGEITINTDDIDLAGDIIQSMASFFAIEDLQVEADFPVYFEELRKVLVKVDEYHSVHQKLSADMADHSNLIRSLLVGAEDARLMRDMKTMKSRYMELYDLNRDLLNGYKIRCNNHTELLGNLKAVNQAIQRAGRLRVGKPKNQVITACRDAIRSNNINTLFKIMRVGTASS
partner: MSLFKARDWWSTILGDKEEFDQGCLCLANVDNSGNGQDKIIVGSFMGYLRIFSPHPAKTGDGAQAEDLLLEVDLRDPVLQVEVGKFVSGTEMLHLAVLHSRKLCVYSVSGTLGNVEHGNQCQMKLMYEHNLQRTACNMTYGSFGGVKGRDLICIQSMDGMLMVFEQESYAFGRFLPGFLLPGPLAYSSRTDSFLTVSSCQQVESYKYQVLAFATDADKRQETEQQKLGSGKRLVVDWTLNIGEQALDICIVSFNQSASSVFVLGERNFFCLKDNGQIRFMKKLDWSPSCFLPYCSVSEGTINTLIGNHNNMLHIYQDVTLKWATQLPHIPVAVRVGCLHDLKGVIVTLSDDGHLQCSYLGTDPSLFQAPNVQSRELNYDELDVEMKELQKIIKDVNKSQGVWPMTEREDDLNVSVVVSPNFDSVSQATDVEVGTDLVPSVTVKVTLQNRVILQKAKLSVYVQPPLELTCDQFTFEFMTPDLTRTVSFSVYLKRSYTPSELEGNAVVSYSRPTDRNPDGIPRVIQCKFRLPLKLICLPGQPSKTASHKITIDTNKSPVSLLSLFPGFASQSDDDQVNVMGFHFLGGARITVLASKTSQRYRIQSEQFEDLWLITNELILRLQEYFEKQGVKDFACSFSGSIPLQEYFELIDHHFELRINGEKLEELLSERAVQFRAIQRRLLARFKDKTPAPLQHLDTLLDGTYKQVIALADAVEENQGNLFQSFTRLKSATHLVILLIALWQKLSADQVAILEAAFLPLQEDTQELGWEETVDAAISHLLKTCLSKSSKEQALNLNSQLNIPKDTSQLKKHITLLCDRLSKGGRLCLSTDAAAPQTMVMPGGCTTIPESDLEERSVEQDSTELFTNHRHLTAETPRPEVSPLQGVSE

Variants of: B1
Details: with pthb1_human BBS9, Q3SYG4

Variant | effect of a mutation on the interaction
R382E | disrupting interaction strength
A504E | with no effect
S704K | with no effect
V694A | with no effect
V694E | with no effect
V694K | with no effect
N354E | with no effect
N354A | with no effect
A361K | with no effect
A361E | with no effect
L650A | with no effect
N327K | with no effect
L367K | with no effect
H428E | with no effect
E369A | with no effect
L349K | with no effect
K659A | with no effect
E494A | with no effect
R684E | with no effect
R699K | with no effect
V588A | with no effect
N692E | with no effect

Variant | effect of a mutation on the interaction
N692K | with no effect
E340A | with no effect
V600K | with no effect
E420K | with no effect
N380A | disrupting interaction strength
N380E | disrupting interaction strength
Y355E | with no effect
G627A | with no effect
G670E | with no effect
S611A | with no effect
N358E | with no effect
N358K | with no effect
G425K | with no effect
A697E | with no effect
Q677K | with no effect
V511E | with no effect
I546E | disrupting interaction strength
I561K | with no effect
A459T | disrupting interaction strength
Q569A | with no effect
R509E | with no effect
R476A | with no effect

Variant | effect of a mutation on the interaction
V453K | disrupting interaction strength
L538E | with no effect
I377A | with no effect
N436A | with no effect
S573E | with no effect
L402K | disrupting interaction strength
Q693K | with no effect
E591K | with no effect
S474A | disrupting interaction strength
I679K | with no effect
S570A | with no effect
D490A | with no effect
S605A | with no effect
F518E | disrupting interaction strength
I441A | with no effect
P521K | with no effect
L550K | with no effect
L550A | with no effect
M571E | with no effect
I434A | with no effect
I434E | with no effect
D562E | with no effect

Variant | effect of a mutation on the interaction
H435K | with no effect
I496A | with no effect
I496K | with no effect
V510A | with no effect
V510E | with no effect
S390G | disrupting interaction strength
T536E | with no effect
S493A | with no effect
T410A | with no effect
A584K | with no effect
R325A | with no effect
P495K | with no effect
R715K | with no effect
E394A | with no effect
L597E | with no effect
L597K | with no effect
D523A | with no effect
G421K | with no effect
S388K | with no effect
E629A | with no effect
M645K | with no effect
F469A | with no effect
